Data from the nanobody polyreactivity screen of Harvey et al. (2022).

Experiment: yeast display, Sf9 membrane polyspecificity reagent, FACS + sequencing; frameworks hold sequencing errors
Method in brief: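 Galactose-induced (36–48 hours) yeast carrying a synthetic nanobody display library were exposed to 10% biotinylated, detergent-solubilized Sf9 membrane reagent at 4 °C for 1 hour. FACS followed streptavidin microbead enrichment, using low and high (top ~1%) gates for expression (anti-HA) and reagent binding (streptavidin). Colony PCR, MiSeq 2 × 250 sequencing and CDR-length filtering followed. Labels for polyreactivity reflect the gate of origin.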

Sequence | polyreactivity (PSR sort gate)
QVQLVESGGGLVQAGGSLRLSCAASGRIFHYNAMGWYRQAPAKERELVAAINRSGGTTNYADSVKGRFTISRDTAKNTVYLEMNSLIPEDTAVYYCNATLPDYWPYYYYLGGDDYWGQGTQVTVSS | low polyreactivity
QVQLVESGGGLVQAGGSLRLSCAASGRIFHYNAMGWYRQAPGKERELVAAITRRGTSTYYADSVKGRFTISRDNAKNTVYLQMNSLKPEDTAVYYCATDYGFKDSVVDFDYWGQGTQVTVSS | low polyreactivity
QVQLVESGGGLVQAGGSLRLSCAASGRIFHYNAMGWYRQAPGKERELVAVITTIGGDTYYADSVKGRFTISRDNAKNTVYLQMNSLKPEDTAVYYCAARSRSWRQRYGDFDYWGQGTQVTVSS | low polyreactivity
QVQLVESGGGLVQAGGSLRLSCAASGRIFHYNAMGWYRQARGKERQLVAAITGGGGSTYYADSVKGRFTISRDNAKNTVYLEKNSLKPEDTAVYYCAKRYRSSSIRVYYWGLGTQVTVSS | high polyreactivity
QVQLVESGGGLVQAGGSLRLSCAASGRIFHYYMGWYRQAPGKERELVAVISSGDGTYYADSVKGRFTISRDNAKYTVYLQMNSLKPEDTAVYYCAADAPREYVDHYKYDDDYWGQGTQVTVSS | low polyreactivity
QVQLVESGGGLVQAGGSLRLSCAASGRIFIAYAMGWYRQAPGKERELVAAITDDGGTNYADSVKGRFTISRDNAKNTVYLQMNSLKPEDTAVYYCAATYLIGYYYVWEYDYWGQGTHVTVSS | low polyreactivity
QVQLVESGGGLVQAGGSLRLSCAASGRIFIDYAMAWYRQAPGKESELVATNTSSGGSTYYADSVKGRFTISRDNAKNTVYLLMNSLNPEDTAVYFCNKEGSYDYDYWGQGTQVTVSS | low polyreactivity
QVQLVESGGGLVQAGGSLRLSCAASGRIFIDYAMGWSRQAHGKERELVAAIDSGGNSNYADSVKGRFTISRDNAKNSVYLQKNSLKPEDTAVYYCNASGVTTDIAGVYWGQGTQVSVSS | low polyreactivity
QVQLVESGGGLVQAGGSLRLSCAASGRIFIDYAMGWYRPAPGKERELVATITSSGGSTYYADSVKGRFTISRDNAKNTVYLQMNRLKPEDTAVYYCNKEGSYDYDYWGQGTQVTVSS | low polyreactivity
QVQLVESGGGLVQAGGSLRLSCAASGRIFIDYAMGWYRQAPGKERELVATISESGGSTYYADSVKARFTISRDNAKNTVYLQMNSLKPEDTAVYYCAAVGDNLATAEYDFWGQGTKVTVSS | low polyreactivity
QVQLVESGGGLVQAGGSLRLSCAASGRIFIENAMGWYRQAPGKERELVAAISGSGGRTYYADSVKGRFTISRDNAKNTVYLQMNSLKPEDTAVYYCAAVLRTQPRRYDYWGQGTQVTVSS | high polyreactivity
QVQLVESGGGLVQAGGSLRLSCAASGRIFIFTYALGWYRQAPGKERELVAAITSSGGSTYYADSVKGRFTISRDNAKNTVYLQMNSLKPEDTAVYYCIAYSYYIVHFIRYEYWGQGTQVTVSS | high polyreactivity
QVQLVESGGGLVQAGGSLRLSCAASGRIFIGNAMGWYRQAPGKERELVAAISKRGGSTYYADSVKGRFTISRDNAKNTVYLQMNSLKPEDTAVYYCNKESLYREFDYWGQGTQVTVSS | low polyreactivity
QVQLVESGGGLVQAGGSLRLSCAASGRIFIGNAMGWYRQAPGKERELVAAISKRGGSTYYADSVKGRFTISRDNAKNTVYLQMNSLKPEDTAVYYCNTESLYREFDDWGQGTQGTVSS | low polyreactivity
QVQLVESGGGLVQAGGSLRLSCAASGRIFINNAMGWYRQAPGKERELVAAINTGGGTNYADSVKGRFTISRDNAKNTVYLEMNSLKPEDSAVYYCAARTYDFRARHKDGYWGQGTQVTVSS | high polyreactivity
QVQLVESGGGLVQAGGSLRLSCAASGRIFIPYAMGWYRLAPGKERELVAAISSSAGSSYYADSVKGRFTISRDTAKNTVYLQMKSLKPEDTAVYYCAARLYWWYAFETYSSLFEYDYWGQGTQVTVSS | low polyreactivity

Sequence | polyreactivity (PSR sort gate)
QVQLVESGGGLVQAGGSLRLSCAASGRIFITKAMGWYRQAPGKERELVAAIRRRGGNTYYADSVKGRFTISRDNAKNTVYLQMNSLKPEDTAVYYCAVYPRPYKYNYWGQGTQVSVSS | high polyreactivity
QVQLVESGGGLVQAGGSLRLSCAASGRIFIYNAMGWYCQAPGKERELVAAINRSGVSTHYADSVKGRFTISRDNAKNTVYLQMNSLKPEDTAVYYCARTDYGARSYDYWGQGTQVTVSS | low polyreactivity
QVQLVESGGGLVQAGGSLRLSCAASGRIFIYNAMGWYRPAPGKERELVAAINRSGVSTHYADSVKGRFTISRDNEKNTVYLQMNSLKPEDTAVYYCARTVYGARSYDYWGQGTQVTVSS | low polyreactivity
QVQLVESGGGLVQAGGSLRLSCAASGRIFIYNAMGWYRQAPGKEMELVAAISWSGGSTYYADSVKGRFTISRDNAKNTVYLQMNSLKPEDTAVYYCNARYYGPSWNSYDYWGQGTQVTVSS | high polyreactivity
QVQLVESGGGLVQAGGSLRLSCAASGRIFIYNAMGWYRQAPGKERELVAAISYSGGRTYYADSVKGRFTISRDNPKNTVYLQMNRLKPEDPAVYYCNAAYRISSAPGYFYFPYNYDYWGQGTQVTVSS | high polyreactivity
QVQLVESGGGLVQAGGSLRLSCAASGRIFIYNAMGWYRQATGKERELVAAISYRGGSTYYADSVKGRFTISRDNAKNTVYLQMNSLKPEDTAVYYCNAKIVQYGAHNYWGQGTQVTVSS | high polyreactivity
QVQLVESGGGLVQAGGSLRLSCAASGRIFIYNDMGWYRQAPGKERELVAAITFIDDSTNYADSVKGRFTISRDNAKYSVYLQMNRLKPEDTAVYYCAARLYSSASGVRWIKFDYWGQGTQVTVSS | low polyreactivity
QVQLVESGGGLVQAGGSLRLSCAASGRIFKFNTMGWYRQAPGKERELVAVITLSGGRTFYADSVKGRFTISRDNAKNTVYLQMNSLKPEDTAVYYCAKDFEGYEGGLSRDDYWGQGTQVTVSS | low polyreactivity
QVQLVESGGGLVQAGGSLRLSCAASGRIFKFYDMGWYREAPGKERELVAAISHAGRTNYADSVKGRFTISRDNAKNTVYLQMNSLKPEDTAVYYCNTDYILVRGVPWYYKLDYWGQGTQVTVSS | high polyreactivity
QVQLVESGGGLVQAGGSLRLSCAASGRIFKGNAMGWYRQAPGKEREFVAAISQRGGSTYYADSVKGRFTISRDNAKNTVYLQMNSLKPEDTAVYYCAAVRKSVGVKYDYWGQGTQVTVSS | high polyreactivity
QVQLVESGGGLVQAGGSLRLSCAASGRIFKGNGMGWYRQAPGKERELVAAISRSGGNTYYADSVKGRFTISRDNAKNTVYLQMNSLKPEDTAVYYCNVRYYTYRFLRFDYWGQGTQVTVSS | high polyreactivity
QVQLVESGGGLVQAGGSLRLSCAASGRIFKGYAMGWYRKAPGKERELVAAITISGGSTYYADSVKGRFTISRDNAKNTVYLQMNSLIPEDTAVFYFAARKFVYWYGMEYWGQGTQVTVSS | low polyreactivity
QVQLVESGGGLVQAGGSLRLSCAASGRIFKKNAMGWYRQAPGKERELVATITQRGGTTYYADSVKGRFTISRDNAKNTVYLQMNSLKPEDTAVYYCATEGYETWSYWYRGAYTYYYWGQGTQVTVSS | high polyreactivity
QVQLVESGGGLVQAGGSLRLSCAASGRIFKNYAMGWYRQAPGKERELVAGITRTGGSTYYADSVKGRFTISRDNAKNTVYLQMNSLKPEDTAVYYCAARPARKLVYWVQGTQVTVSS | high polyreactivity
QVQLVESGGGLVQAGGSLRLSCAASGRIFKPYAMGWYRQAPGKERELVAAITDGGTTYYADSVKGRFTISRDNAKNTVYLQMNSLKPEDTAVYYCAADLGKLRYDYWGPGTQVTVSS | low polyreactivity
